{"source": "IntAct's records for PubMed 31515488", "parents": {"B1": {"name": "TNF receptor-associated factor 1 (Homo sapiens), Q13077 (parent)", "chain": "MASSSGSSPRPAPDENEFPFGCPPTVCQDPKEPRALCCAGCLSENPRNGEDQICPKCRGEDLQSISPGSRLRTQEKAHPEVAEAGIGCPFAGVGCSFKGSPQSVQEHEVTSQTSHLNLLLGFMKQWKARLGCGLESGPMALEQNLSDLQLQAAVEVAGDLEVDCYRAPCSESQEELALQHFMKEKLLAELEGKLRVFENIVAVLNKEVEASHLALATSIHQSQLDRERILSLEQRVVELQQTLAQKDQALGKLEQSLRLMEEASFDGTFLWKITNVTRRCHESACGRTVSLFSPAFYTAKYGYKLCLRLYLNGDGTGKRTHLSLFIVIMRGEYDALLPWPFRNKVTFMLLDQNNREHAIDAFRPDLSSASFQRPQSETNVASGCPLFFPLSKLQSPKHAYVKDDTMFLKCIVETST"}, "B2": {"name": "1-phosphatidylinositol 4,5-bisphosphate phosphodiesterase delta-4 (Homo sapiens), Q9BRC7 (parent)", "chain": "MASLLQDQLTTDQDLLLMQEGMPMRKVRSKSWKKLRYFRLQNDGMTVWHARQARGSAKPSFSISDVETIRNGHDSELLRSLAEELPLEQGFTIVFHGRRSNLDLMANSVEEAQIWMRGLQLLVDLVTSMDHQERLDQWLSDWFQRGDKNQDGKMSFQEVQRLLHLMNVEMDQEYAFSLFQAADTSQSGTLEGEEFVQFYKALTKRAEVQELFESFSADGQKLTLLEFLDFLQEEQKERDCTSELALELIDRYEPSDSGKLRHVLSMDGFLSYLCSKDGDIFNPACLPIYQDMTQPLNHYFICSSHNTYLVGDQLCGQSSVEGYIRALKRGCRCVEVDVWDGPSGEPVVYHGHTLTSRILFKDVVATVAQYAFQTSDYPVILSLETHCSWEQQQTMARHLTEILGEQLLSTTLDGVLPTQLPSPEELRRKILVKGKKLTLEEDLEYEEEEAEPELEESELALESQFETEPEPQEQNLQNKDKKKKSKPILCPALSSLVIYLKSVSFRSFTHSKEHYHFYEISSFSETKAKRLIKEAGNEFVQHNTWQLSRVYPSGLRTDSSNYNPQELWNAGCQMVAMNMQTAGLEMDICDGHFRQNGGCGYVLKPDFLRDIQSSFHPEKPISPFKAQTLLIQVISGQQLPKVDKTKEGSIVDPLVKVQIFGVRLDTARQETNYVENNGFNPYWGQTLCFRVLVPELAMLRFVVMDYDWKSRNDFIGQYTLPWTCMQQGYRHIHLLSKDGISLRPASIFVYICIQEGLEGDES", "partner": "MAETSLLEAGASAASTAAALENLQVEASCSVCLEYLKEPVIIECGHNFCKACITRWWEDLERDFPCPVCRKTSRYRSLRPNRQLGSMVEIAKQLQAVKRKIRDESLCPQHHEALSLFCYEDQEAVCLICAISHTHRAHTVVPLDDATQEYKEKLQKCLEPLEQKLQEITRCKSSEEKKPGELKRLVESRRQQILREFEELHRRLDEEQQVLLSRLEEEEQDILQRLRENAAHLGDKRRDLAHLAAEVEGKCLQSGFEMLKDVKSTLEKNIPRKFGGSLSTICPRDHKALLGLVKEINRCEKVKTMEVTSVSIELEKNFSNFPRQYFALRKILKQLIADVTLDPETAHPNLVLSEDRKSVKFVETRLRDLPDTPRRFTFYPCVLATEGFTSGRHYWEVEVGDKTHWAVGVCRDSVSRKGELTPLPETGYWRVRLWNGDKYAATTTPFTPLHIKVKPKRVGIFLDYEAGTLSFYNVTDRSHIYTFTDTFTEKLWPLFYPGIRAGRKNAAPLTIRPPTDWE"}, "B3": {"name": "Cytochrome b-245 chaperone 1 (Homo sapiens), Q9BQA9 (parent)", "chain": "MYLQVETRTSSRLHLKRAPGIRSWSLLVGILSIGLAAAYYSGDSLGWKLFYVTGCLFVAVQNLEDWEEAIFDKSTGKVVLKTFSLYKKLLTLFRAGHDQVVVLLHDVRDVSVEEEKVRYFGKGYMVVLRLATGFSHPLTQSAVMGHRSDVEAIAKLITSFLELHCLESPTELSQSSDSEAGDPASQS"}, "B4": {"name": "Inactive peptidyl-prolyl cis-trans isomerase FKBP6 (Homo sapiens), O75344 (parent)", "chain": "MGGSALNQGVLEGDDAPGQSLYERLSQRMLDISGDRGVLKDVIREGAGDLVAPDASVLVKYSGYLEHMDRPFDSNYFRKTPRLMKLGEDITLWGMELGLLSMRRGELARFLFKPNYAYGTLGCPPLIPPNTTVLFEIELLDFLDCAESDKFCALSAEQQDQFPLQKVLKVAATEREFGNYLFRQNRFYDAKVRYKRALLLLRRRSAPPEEQHLVEAAKLPVLLNLSFTYLKLDRPTIALCYGEQALIIDQKNAKALFRCGQACLLLTEYQKARDFLVRAQKEQPFNHDINNELKKLASCYRDYVDKEKEMWHRMFAPCGDGSTAGES", "partner": "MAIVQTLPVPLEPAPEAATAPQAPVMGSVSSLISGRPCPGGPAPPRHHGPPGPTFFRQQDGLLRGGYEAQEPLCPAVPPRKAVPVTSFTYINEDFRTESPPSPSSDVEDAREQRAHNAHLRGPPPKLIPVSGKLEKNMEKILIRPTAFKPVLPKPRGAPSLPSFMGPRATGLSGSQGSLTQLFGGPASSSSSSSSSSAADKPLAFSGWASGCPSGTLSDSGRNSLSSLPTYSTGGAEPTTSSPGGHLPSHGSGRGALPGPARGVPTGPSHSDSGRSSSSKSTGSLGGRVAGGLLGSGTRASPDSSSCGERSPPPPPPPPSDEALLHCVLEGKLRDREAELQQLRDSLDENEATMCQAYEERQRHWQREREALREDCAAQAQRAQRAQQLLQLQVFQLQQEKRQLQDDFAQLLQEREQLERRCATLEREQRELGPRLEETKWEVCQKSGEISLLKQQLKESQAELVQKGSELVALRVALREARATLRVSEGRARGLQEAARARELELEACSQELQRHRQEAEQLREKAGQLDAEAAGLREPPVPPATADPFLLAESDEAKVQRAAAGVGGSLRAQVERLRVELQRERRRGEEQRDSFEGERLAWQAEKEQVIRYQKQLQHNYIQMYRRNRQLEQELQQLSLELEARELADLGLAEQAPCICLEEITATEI"}, "B5": {"name": "Vasculin (Homo sapiens), Q86WP2 (parent)", "chain": "MAQHDFAPAWLNFPTPPSSTKSSLNFEKHSENFAWTENRYDVNRRRHNSSDGFDSAIGRPNGGNFGRKEKNGWRTHGRNGTENINHRGGYHGGSSRSRSSIFHAGKSQGLHENNIPDNETGRKEDKRERKQFEAEDFPSLNPEYEREPNHNKSLAAGVWEYPPNPKSRAPRMLVIKKGNTKDLQLSGFPVVGNLPSQPVKNGTGPSVYKGLVPKPAAPPTKPTQWKSQTKENKVGTSFPHESTFGVGNFNAFKSTAKNFSPSTNSVKECNRSNSSSPVDKLNQQPRLTKLTRMRTDKKSEFLKALKRDRVEEEHEDESRAGSEKDDDSFNLHNSNSTHQERDINRNFDENEIPQENGNASVISQQIIRSSTFPQTDVLSSSLEAEHRLLKEMGWQEDSENDETCAPLTEDEMREFQVISEQLQKNGLRKNGILKNGLICDFKFGPWKNSTFKPTTENDDTETSSSDTSDDDDV", "partner": "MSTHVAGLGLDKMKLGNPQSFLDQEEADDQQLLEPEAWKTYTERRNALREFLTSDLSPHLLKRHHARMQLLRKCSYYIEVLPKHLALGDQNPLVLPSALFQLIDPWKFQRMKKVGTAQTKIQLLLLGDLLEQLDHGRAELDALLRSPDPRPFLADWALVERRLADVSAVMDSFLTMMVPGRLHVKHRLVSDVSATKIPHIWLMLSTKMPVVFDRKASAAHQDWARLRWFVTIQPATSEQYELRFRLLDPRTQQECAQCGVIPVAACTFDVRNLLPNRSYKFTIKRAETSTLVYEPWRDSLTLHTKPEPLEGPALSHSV"}}, "data": [{"variants_of": "B1", "settings": "with traf2_human TRAF2, Q12933", "values": [{"variant": "V208M", "effect of a mutation on the interaction": "with no effect"}, {"variant": "R226H", "effect of a mutation on the interaction": "with no effect"}, {"variant": "R226C", "effect of a mutation on the interaction": "with no effect"}, {"variant": "R228C", "effect of a mutation on the interaction": "with no effect"}, {"variant": "R228H", "effect of a mutation on the interaction": "with no effect"}]}, {"variants_of": "B2", "settings": "with tri39_human TRIM39, Q9HCM9", "values": [{"variant": "N475K", "effect of a mutation on the interaction": "with no effect"}]}, {"variants_of": "B3", "settings": "with BCL2L13, Q9BXK5", "values": [{"variant": "R129W", "effect of a mutation on the interaction": "with no effect"}]}, {"variants_of": "B4", "settings": "with lzts2_human LZTS2, Q9BRK4", "values": [{"variant": "H287N", "effect of a mutation on the interaction": "with no effect"}, {"variant": "R175Q", "effect of a mutation on the interaction": "with no effect"}]}, {"variants_of": "B5", "settings": "with fnd11_human FNDC11, Q9BVV2", "values": [{"variant": "T223A", "effect of a mutation on the interaction": "with no effect"}, {"variant": "S449R", "effect of a mutation on the interaction": "with no effect"}]}]}
